Experimental data: patent US20200407449A1 (PHARMABCINE, published 2020)

T1: mouse VISTA-Fc (mouse, UniProt Q9D659 33-191)
T1 construct: extracellular domain; also called mVISTA-Fc; VISTA-FC Mouse; not shown: Fc portion
T1 sequence (looked up): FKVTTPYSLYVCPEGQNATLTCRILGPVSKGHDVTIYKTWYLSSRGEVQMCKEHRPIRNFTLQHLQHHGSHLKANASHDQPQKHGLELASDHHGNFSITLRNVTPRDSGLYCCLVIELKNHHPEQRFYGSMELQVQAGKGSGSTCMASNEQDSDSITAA

T2: hVISTA-Fc (R&D systems. Cat. No. 7126-B7) (human, UniProt Q9H7M9 33-194)
T2 construct: Bought antigen; also called human VISTA-Fc; VISTA-FC Human
T2 sequence: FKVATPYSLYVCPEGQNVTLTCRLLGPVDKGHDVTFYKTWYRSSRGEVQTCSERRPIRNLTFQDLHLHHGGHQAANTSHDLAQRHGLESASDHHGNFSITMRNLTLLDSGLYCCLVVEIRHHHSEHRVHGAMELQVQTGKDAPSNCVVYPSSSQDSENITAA


What was measured:
[1] = molecular target: T1, mouse VISTA-Fc; assay: ELISA, plate coated with 1 ug/ml mouse VISTA-Fc, antibody at 1 ug/ml, anti-human IgG (kappa)-peroxidase
Method: ELISA assay: 1 μg/ml of Ag (human VISTA-Fc or mouse VISTA-Fc) was plated at 100 μl/well onto a 96-well plate and incubated at 4° C. overnight. The next day, the plated Ag was washed 3 times with 0.05% PBST and 200 μl of 2% BSA blocking buffer was added thereto, followed by incubation at 25° C. for 2 hours. After blocking was completed, the resulting product was washed 3 times with 0.05% PBST. 1 μg/ml of each antibody was injected at 100 μl/well and incubated at 25° C. for 1 hour. After incubation was completed, the resulting product was washed 3 times with 0.05% PBST and 100 μl of goat anti-human IgG (kappa)-conjugated peroxidase (1:2000, Bethyl Lab #A80-115P) was added thereto, followed by incubation at 25° C. for […]. After incubation, the resulting product was washed 3 times with 0.05% PBST, 100 μl of TMB (BD TMB substrate reagent set #555214) was added, color was developed for 3 to 5 minutes, 50 μl of a stop solution was added thereto, and then an assay was performed using an ELISA reader.

[2] = molecular target: T2, hVISTA-Fc (R&D systems. Cat. No. …); assay: Octet (BLI), antibody immobilised on biosensor, antigen in solution
Method: (§1) The binding ability of the screened antibody to the antigen was measured using an Octet (ForteBio). For this purpose, the antibody was immobilized on a biosensor, various concentrations of antigen were added to a 96-well plate, and then the binding ability was measured.

[3] = molecular target: T2, hVISTA-Fc (R&D systems. Cat. No. …); assay: monoclonal scFv phage ELISA, plate coated with 1 ug/ml VISTA-Fc, anti-M13-HRP
Method: (§2) After the panning process was completed, the final round cell stock was diluted to form 200 to 500 colonies, spread on a CM agar plate, and then incubated overnight at 37° C. The next day, when the colonies grew, 200 μl of 2xYT medium (CM 34 μg/ml+1% glucose) was plated onto a 96-well deep plate, the colony was inserted into each well one by one and the plate was then incubated overnight at 37° C. and 3,000 rpm. The next day, 200 μl of 2×YT medium (CM 34 μg/ml+1% glucose) was plated onto a new 96-well dip plate, and […] of cells grown the day before were injected into each well and grown at 37° C. and 3,000 rpm for 1 hour and 10 minutes. The remaining cells were stored at −70° C. in 100 pμl of 50% glycerol. When the cells grew, 1 μl of a helper phage was mixed with 19 μl of 2×YT medium, and 20 μl of the resulting mixture was injected into each well and incubated for 30 minutes at 37° C. After incubation, centrifugation was performed at 3,000 rpm for 10 minutes. The supernatant was discarded and 200 μl of 2×YT medium (CM 34 μg/ml+Kan. 70 μg/ml+1 mM IPTG+5 mM MgCl₂) was added to the residue, followed by incubation in MegaGrow at 30° C. and 3,000 rpm overnight.
(§3) 1 μg/ml of Ag (hVISTA-Fc, mVISTA-Fc) was plated at 100 μl/well onto a 96-well immunoplate and then incubated overnight at 4° C. The next day, the cells grown the day before were centrifuged at 3,000 rpm for 10 minutes and stored at 4° C. The plated Ag was washed 3 times with 0.05% PBST, and then 200 μl of 2% BSA blocking buffer was added thereto, followed by incubation at 25° C. for 2 hours. After blocking was completed, the result was washed 3 times with 0.05% PBST. […] After phage binding was completed, the reaction product was washed three times with 0.05% PBST, 100 μl of HRP-conjugated mouse anti-M13 antibody (1:3000, #GE 27-9421-01) was added thereto, and reaction was allowed to proceed at 25° C. for 1 hour. After the reaction was completed, the resulting product was washed 3 times with 0.05% PBST, 100 μl of TMB (#BD TMB substrate reagent set 555214) was added thereto, color was developed for 3 to 5 minutes, 50 μl of a stop solution was added thereto, and then an assay was performed using an ELISA reader.

[4] = molecular target: T2, hVISTA-Fc (R&D systems. Cat. No. …); assay: dissociation rate constant of scFv in the screening of optimised clones; antigen not named
[5] = molecular target: T1, mouse VISTA-Fc; assay: Octet (BLI), antibody immobilised on biosensor, antigen in solution
Method: as §1

[6] = molecular target: T1, mouse VISTA-Fc; assay: monoclonal scFv phage ELISA, plate coated with 1 ug/ml VISTA-Fc, anti-M13-HRP
Method: as §2, §3

Binder | Kd [2] [nM] | koff [2] [s⁻¹] | kon [2] [M⁻¹ s⁻¹] | OD [3] [OD] | also measured
anti-VISTA antibody 3C5 (IgG form) (antibody, V domains shown) VH: QVQLVQSGAEVKKPGASVKLSCKASGYTFSSYWMHWVRQAPGQRLEWMGEINPGNGHTNYNEKFKSRVTITVDKSASTAYMELSSLRSEDTAVYYCAKDIAYYDFWSGDAFDLWGQGTMVTVSS VL: SYELTQPLSVSVSPGQTASITCSGDKLGNKYASWYQQKPGQSPVLVIYQDNKRPSGIPERFSGSNSGNTATLTISGTQATDEADYYCQTWDRSTGVFGTGTKVTVLG | 13.9 | 0.00367 | 264000 |  | binding result [1]: no binding (tested: 1 ug/ml)
3C5 monoclonal scFv phage (scFv, V domains shown) VH: QVQLVQSGAEVKKPGASVKLSCKASGYTFSSYWMHWVRQAPGQRLEWMGEINPGNGHTNYNEKFKSRVTITVDKSASTAYMELSSLRSEDTAVYYCAKDIAYYDFWSGDAFDLWGQGTMVTVSS VL: SYELTQPLSVSVSPGQTASITCSGDKLGNKYASWYQQKPGQSPVLVIYQDNKRPSGIPERFSGSNSGNTATLTISGTQATDEADYYCQTWDRSTGVFGTGTKVTVLG |  |  |  | 2.2 | 
anti-VISTA antibody 1A12 (IgG form) (antibody, V domains shown) VH: QMQLVESGGGLVEPGRSLRLSCTTSGFSFHDYTMYWVRQVPGKGLEWVSLISWDGTITFYADPVRGRFTISRDNSKNSLYLQMNSLRAEDTAVYYCAKEDRYDYYSGAFDIWGQGTVVTVSS VL: QSALTQPRSVSGSPGQSVTISCTGTSSDVGGYDYVSWYQQHPGKAPKLILNDVNKRPSGVPDRFSGSKSGNTASLTISGLQPDDEADYYCSSFAGSNTLRVFGGGTKLTVLG | 0.546 | 2.74e-05 | 50200 |  | binding result [1]: no binding (tested: 1 ug/ml)
1A12 monoclonal scFv phage (scFv, V domains shown) VH: QMQLVESGGGLVEPGRSLRLSCTTSGFSFHDYTMYWVRQVPGKGLEWVSLISWDGTITFYADPVRGRFTISRDNSKNSLYLQMNSLRAEDTAVYYCAKEDRYDYYSGAFDIWGQGTVVTVSS VL: QSALTQPRSVSGSPGQSVTISCTGTSSDVGGYDYVSWYQQHPGKAPKLILNDVNKRPSGVPDRFSGSKSGNTASLTISGLQPDDEADYYCSSFAGSNTLRVFGGGTKLTVLG |  |  |  | 1.88 | 
1B8 monoclonal scFv phage (scFv, V domains shown, also called IB8; Anti VISTA.3.0 (1B8)) VH: QMQLVQSGAEVKKPGSSVKVSCKASGGSSSNYAISWVRQAPGQGLEWMGGIIPIFGTTSYAQKFQGRVTITADGSMSTAYMELSSLRSEDTAVYYCAKGAIEPWPFYFDNWGQGTLVTVSS VL: QLVLTQPRSVSGSPGQSVTISCTGTNSDVGAYNYLSWYQQLPGRAPKVIIYDVNKRPSGVPDRFSGSRSGKTASLTISGLQAEDEADYYCAAWDDSLNGLVFGGGTKLTVLG |  |  |  | 2.13 | koff [4]: 0.000732 s⁻¹
anti-VISTA antibody 2C12 (IgG form) (antibody, V domains shown, also called #2C12(H); #2C12(M)) VH: QVQLVESGAEVKKPGASVKVSCKASGYIFTDYYMHWVRQAPGQGLEWMGVINPYDGRTSFAQKFQGRLTVTRDTSTSTAYMDLSGLRSEDTAVYYCAKQMGIWDYDAFDIWGQGTMVTVSS VL: QFVLTQPSSVSGAPGQRVIISCTGSSSNIGAGYDVHWYQQLPGTAPKVLIYGNSDRPSGVPDRFSASKSATSASLAITGLQAEDEADYYCVAWDDSLKAYVFGTGTKVTVLG | 1.02 | 8.48e-05 | 83400 |  | Kd [5]: 14 nM; koff [5]: 0.00078 s⁻¹; kon [5]: 55700 M⁻¹ s⁻¹
2C12 monoclonal scFv phage (scFv, V domains shown) VH: QVQLVESGAEVKKPGASVKVSCKASGYIFTDYYMHWVRQAPGQGLEWMGVINPYDGRTSFAQKFQGRLTVTRDTSTSTAYMDLSGLRSEDTAVYYCAKQMGIWDYDAFDIWGQGTMVTVSS VL: QFVLTQPSSVSGAPGQRVIISCTGSSSNIGAGYDVHWYQQLPGTAPKVLIYGNSDRPSGVPDRFSASKSATSASLAITGLQAEDEADYYCVAWDDSLKAYVFGTGTKVTVLG |  |  |  | 2.11 | OD [6]: 2.03 OD
